Laboratory results as given in patent US20150104459A1.

Legend:
Details in all cases: remark: other sources report otherwise
[1] = target: recombinant soluble homotrimeric HA of A/Anhui/1/05 (H5N1) (Influenza A virus A/Anhui/1/2005 (H5N1)); assay: HA microarray, BCC supernatant
[2] = target: recombinant soluble homotrimeric HA of A/California/4/09 (H1N1) (Influenza A virus A/California/04/2009 (H1N1)); assay: HA microarray, BCC supernatant
[3] = target: recombinant soluble homotrimeric HA of A/Egypt/3300-NAMRU3/08 (H5N1) (Influenza A virus A/Egypt/3300-NAMRU3/2008 (H5N1)); assay: HA microarray, BCC supernatant
[4] = target: recombinant soluble homotrimeric HA of A/Indonesia/5/05 (H5N1) (Influenza A virus A/Indonesia/5/2005 (H5N1)); assay: HA microarray, BCC supernatant
[5] = target: recombinant soluble homotrimeric HA of A/Japan/305/57 (H2N2) (Influenza A virus A/Japan/305/1957 (H2N2)); assay: HA microarray, BCC supernatant
[6] = target: recombinant soluble homotrimeric HA of A/Solomon Islands/3/06 (H1N1) (Influenza A virus A/Solomon Islands/3/2006 (H1N1)); assay: HA microarray, BCC supernatant
[7] = target: recombinant soluble homotrimeric HA of A/Vietnam/1203/04 (H5N1) (Influenza A virus A/Vietnam/1203/2004 (H5N1)); assay: HA microarray, BCC supernatant
[8] = target: recombinant soluble homotrimeric HA of A/Wisconsin/67/05 (H3N2) (Influenza A virus A/Wisconsin/67/2005 (H3N2)); assay: HA microarray, BCC supernatant
[9] = target: recombinant soluble homotrimeric HA of A/chicken/Vietnam/NCVD-016/08 (H5N1) (Influenza A virus A/chicken/Vietnam/NCVD-016/2008 (H5N1)); assay: HA microarray, BCC supernatant
[10] = target: recombinant soluble homotrimeric HA of A/duck/Yangzhou/02/2005 (H8N4) (Influenza A virus A/duck/Yangzhou/02/2005 (H8N4)); assay: HA microarray, BCC supernatant
[11] = target: recombinant soluble homotrimeric HA of A/northern shoveler/California/HKWF115/2007 (H6N1) (Influenza A virus A/northern shoveler/California/HKWF115/2007 (H6N1)); assay: HA microarray, BCC supernatant
[12] = target: recombinant soluble homotrimeric HA of A/swine/Ontario/01911-2/99 (H4N6) (Influenza A virus A/Swine/Ontario/01911-2/99 (H4N6)); assay: HA microarray, BCC supernatant
[13] = target: recombinant soluble homotrimeric HA, A/Anhui/1/05 (H5N1) (influenza A virus A/Anhui/1/2005 (H5N1)); assay: microarray, trimeric HA, transfection supernatant
[14] = target: recombinant soluble homotrimeric HA, A/Hong Kong/156/97 (H5N1) (influenza A virus A/Hong Kong/156/97 (H5N1)); assay: microarray, trimeric HA, transfection supernatant
[15] = target: recombinant soluble homotrimeric HA, A/chicken/Vietnam/NCVD-016/08 (H5N1) (influenza A virus A/chicken/Vietnam/NCVD-016/2008 (H5N1)); assay: microarray, trimeric HA, transfection supernatant
[16] = target: recombinant soluble homotrimeric HA, A/duck/Yangzhou/02/2005 (H8N4) (influenza A virus A/duck/Yangzhou/02/2005 (H8N4)); assay: microarray, trimeric HA, transfection supernatant
[17] = target: recombinant soluble homotrimeric HA, A/northern shoveler/California/HKWF115/2007 (H6N1) (influenza A virus A/northern shoveler/California/HKWF115/2007 (H6N1)); assay: microarray, trimeric HA, transfection supernatant
[18] = target: recombinant soluble homotrimeric HA of A/Hong Kong/2108/03 (H9N2) (Influenza A virus A/Hong Kong/2108/2003 (H9N2)); assay: HA microarray, BCC supernatant
[19] = target: recombinant soluble homotrimeric HA of A/Netherlands/219/03 (H7N7) (Influenza A virus A/Netherlands/219/03 (H7N7)); assay: HA microarray, BCC supernatant

Row | Binder | Trimeric HA Binding RLU [1] [RLU] | Trimeric HA Binding RLU [2] [RLU] | Trimeric HA Binding RLU [3] [RLU] | Trimeric HA Binding RLU [4] [RLU] | Trimeric HA Binding RLU [5] [RLU] | Trimeric HA Binding RLU [6] [RLU] | Trimeric HA Binding RLU [7] [RLU] | Trimeric HA Binding RLU [8] [RLU] | Trimeric HA Binding RLU [9] [RLU] | Trimeric HA Binding RLU [10] [RLU] | Trimeric HA Binding RLU [11] [RLU] | Trimeric HA Binding RLU [12] [RLU] | Trimeric HA Binding RLU [13] [RLU] | Trimeric HA Binding RLU [14] [RLU] | Trimeric HA Binding RLU [15] [RLU] | Trimeric HA Binding RLU [16] [RLU] | Trimeric HA Binding RLU [17] [RLU] | Trimeric HA Binding RLU [18] [RLU] | Trimeric HA Binding RLU [19] [RLU]
1 | TCN-553 (5261_C18) (antibody, V domains shown) VH: QVQVVQSGTEVKKPGSSVKVSCQTSGGRFMSYAITWVRQAPGQGLEWMGGIVPVFGTANYAQKFQGRVTITTDDSTRTAYMELSSLRSEDTAVYYCGFRYGSGYGFDSWGQGTLVTVSS VL: EIVLTQSPGTLSLSPGERATLSCRASQSVSSSYLAWYQKKPGQAPRLLIYGASTRATGIPDRFTGSGSGTDFTLSISRLEPEDFAVYYCQHFGTSVFTFGGGTKVEIK | 12600 | 20300 | 18800 | 24400 | 25500 | 16300 | 6560 | 20000 | 24200 | 28000 | 21700 | 2580 | 8550 | 36300 | 34700 | 12500 | 32500 | – | –
2 | TCN-552 (5249_I23) (antibody, V domains shown) VH: QVQVVQSGAEVKKPGSSVRVSCQASGGTFMNYAIIWVRRAPGQGLEWMGGIIPVFPTPNYAQMFQGRVTISTDESRSTSFLELTNLRYEDTAVYYCARRIYHGGNSGFDFWGQGTLVTVSS VL: EIVLTQSPATLSLSPGERATLSCRASQSVGNYLAWYQQKPGQAPRLLIYDSSNRAPGIPARFSGSGSGTDFTLTISSLAPEDFAVYYCQQRSKWPPMYSFGHGTKLEIK | 4160 | 35300 | 40000 | 43600 | 23800 | 39300 | 2730 | 14800 | 46200 | 13100 | 38400 | – | – | 36300 | 34500 | 15900 | 43900 | – | –
3 | TCN-536 (5095_N01) (antibody, V domains shown) VH: QVQLQQWGAGLLKPSETLSLTCAVYGGSFSVSGYYWSWIRQPPGRGLEWIGEISHGGSTNYNPSLKSRVTISVDTTKNQFSLRLSSVTAADTAVYYCARGTDPDTEVYCRVGNCAAFDYWGQGSLVTVSS VL: EIILAQSPGTLSLSPGERATLSCRASQFVSTRSLAWYQQRPGQAPRLLIYGASSRATGIPDRFSGSGSGTDFTLTISRLEPEDFAVYYCQHYGYSPRYAFGQGSKVEIK | – | 151 | – | – | 121 | – | – | 35000 | 287 | – | – | 79 | – | – | – | – | – | – | –
4 | TCN-537 (3194_D21) (antibody, V domains shown) VH: QVQLQQWGSGLLKPSETLSLTCAVYGGSFRDDYWTWIRQPPGKGLEWIGEINHSGRTNYNPSLKSRVTISVDTSLKQFSLKVISVTAADTAVYYCARGTSHVSRYFDWLPPTNWFDPWGQGTQVTVSS VL: DIVLTQSPGTLSLSPGERATLSCRASQSVSSSYLAWYQQKPGQAPRLVMYGAATRATGIPDRFSGSGSGPDFTLTISRLEPEDFAMYYCQQYGNSPITFGQGTRLEIK | – | 21900 | 38200 | 14900 | 44700 | – | – | 549 | 8620 | 7830 | 5210 | 19 | – | 10700 | 4480 | 25500 | – | – | –
5 | TCN-530 (5248_H10a) (antibody, V domains shown) VH: QVQLVQSGAEVRKPGSSVKVSCKASGGPFMSYAIGWVRQAPGQGLEWMGGINPVFGRPHYAQKFQGRVTIATDDSTKTSYMELSSLTSEDTGMYYCASRYSRSSPGTFESWGQGTLVTVSS VL: EIVMTQFPATLSVSPGERVTLSCRASQSVSNNLAWYQQKPGQPPRLLIYDASTRATGVPAKFSGTGSGTEFTLSISSLQSEDFAVYYCQQYHNWPPSYSFGLGTKLEIK | 11900 | 46600 | 30400 | 39800 | 47000 | 32800 | 7150 | 36800 | 48300 | – | 45300 | – | – | – | – | – | – | – | –
6 | TCN-548 (5092_P01) (antibody, V domains shown) VH: QVQLQESGPGLVKPSETLSLTCTVSSGPMSDYYWSWIRQPPGKGLEWIGHVSVSHGGRTKSNPSVMSRVTISVETSKNQFSLKLTSVTAADTAVYYCARLNYYDRSGYHSPDGPSNNWFDPWGQGTLVTVSS VL: not shown | – | 234 | – | – | 416 | 283 | – | – | 254 | 184 | 314 | – | – | – | 1060 | 5740 | 2100 | – | –
7 | TCN-550 (5096_F06) (antibody, V domains shown) VH: QVQLQESGPGLVKPSETLSLTCTVSGASINSHYWSWIRQPPGKGLEWIGYVYYSGSTTYNPSLKSRVTLSVDTSKNQFSLNLSSVTAADTAFYYCARHPYDVLTGSGDWFDPWGQGTLVTVSS VL: SYVLTQAPSVSVAPGQTARITCGGNAIGSKKVHWYQHKAGQAPVLVVYDDTDRPSGIPERFSGSNSWSTATLTINRVEAGDEADYYCQVWDFTIDHVVFGGGTKLTVL | 1210 | – | – | 9100 | 201 | 204 | 277 | 26300 | 361 | 407 | – | – | – | 955 | 1800 | 4710 | 2300 | 2280 | –
8 | TCN-532 (5262_H18) (antibody, V domains shown) VH: QVQLQESGPGLVKPSETLSLTCTVSGGSVSSETYYWSWIRQPPGKGLEWIGYIYYIGNTDYRPSLKSRVTISLDTSKNQFSLKLSSVTAADTAVYYCARGAYYDSSGYPAFYIWGQGTMVTVSS VL: QSVLTQPPSVSGAPGQRVTISCTGSSSNIGSDYDVHWYKQLPGTAPKLLIFGNSNRPSGVPDRFSGSKSGTSASLAITGLQAEDEADYYCQSYDSSLSGFHVFGSGTKVTVL | – | – | – | – | 176 | 327 | – | 18000 | 46 | – | 511 | 119 | – | – | – | – | – | – | 327
9 | TCN-563 (5237_B21) (antibody, V domains shown) VH: QVQLAQSGAEVKRPGSSVKVSCTASGGIFRKNAISWVRQAPGQGLEWMGGIIAVFNTANYAQKFQGRVKITADESGNTAYMELSSLRSDDTAVYYCASHPKYFYGSGSYPDFWGQGTLVTVSS VL: QSALTQPRSVSGSPGQSVTISCTGSSSDVGASNSVSWYQQHPGKAPKLVIYDVTERPSGVPHRFSGSKSGNTASLTVSGLQPEDEADYFCCAYGGKYLVVFGGGTKVTVL | 9580 | 45200 | 27500 | 39500 | 6610 | 30000 | 4840 | 40800 | 41000 | 46700 | 27300 | 4500 | – | – | – | – | – | – | 7520
